Drawing on publication PMC5702604 (2017), this text covers ratio to parent for two variants.

The chains are these.
B1: Piezo1-GST fusion protein (mouse Piezo1) [mouse] / Flag-tagged SERCA2 (SERCA2b) [not stated] (parent complex)
chain 1: MEPHVLGAGLYWLLLPCTLLAASLLRFNALSLVYLLFLLLLPWLPGPSRHSIPGHTGRLLRALLCLSLLFLVAHLAFQICLHTVPHLDQFLGQNGSLWVKVSQHIGVTRLDLKDIFNTTRLVAPDLGVLLASSLCLGLCGRLTRKAGQSRRTQELQDDDDDDDDDDEDIDAAPAVGLKGAPALATKRRLWLASRFRVTAHWLLMTSGRTLVIVLLALAGIAHPSAFSSIYLVVFLAICTWWSCHFPLSPLGFNTLCVMVSCFGAGHLICLYCYQTPFIQDMLPPGNIWARLFGLKNFVDLPNYSSPNALVLNTKHAWPIYVSPGILLLLYYTATSLLKLHKSCPSELRKETPREDEEHELELDHLEPEPQARDATQGEMPMTTEPDLDNCTVHVLTSQSPVRQRPVRPRLAELKEMSPLHGLGHLIMDQSYVCALIAMMVWSIMYHSWLTFVLLLWACLIWTVRSRHQLAMLCSPCILLYGLTLCCLRYVWAMELPELPTTLGPVSLHQLGLEHTRYPCLDLGAMLLYLLTFWLLLRQFVKEKLLKKQKVPAALLEVTVADTEPTQTQTLLRSLGELVTGIYVKYWIYVCAGMFIVVSFAGRLVVYKIVYMFLFLLCLTLFQVYYTLWRKLLRVFWWLVVAYTMLVLIAVYTFQFQDFPTYWRNLTGFTDEQLGDLGLEQFSVSELFSSILIPGFFLLACILQLHYFHRPFMQLTDLEHVPPPGTRHPRWAHRQDAVSEAPLLEHQEEEEVFREDGQSMDGPHQATQVPEGTASKWGLVADRLLDLAASFSAVLTRIQVFVRRLLELHVFKLVALYTVWVALKEVSVMNLLLVVLWAFALPYPRFRPMASCLSTVWTCIIIVCKMLYQLKIVNPHEYSSNCTEPFPNNTNLQPLEINQSLLYRGPVDPANWFGVRKGYPNLGYIQNHLQILLLLVFEAVVYRRQEHYRRQHQQAPLPAQAVCADGTRQRLDQDLLSCLKYFINFFFYKFGLEICFLMAVNVIGQRMNFMVILHGCWLVAILTRRRREAIARLWPNYCLFLTLFLLYQYLLCLGMPPALCIDYPWRWSKAIPMNSALIKWLYLPDFFRAPNSTNLISDFLLLLCASQQWQVFSAERTEEWQRMAGINTDHLEPLRGEPNPIPNFIHCRSYLDMLKVAVFRYLFWLVLVVVFVAGATRISIFGLGYLLACFYLLLFGTTLLQKDTRAQLVLWDCLILYNVTVIISKNMLSLLSCVFVEQMQSNFCWVIQLFSLVCTVKGYYDPKEMMTRDRDCLLPVEEAGIIWDSICFFFLLLQRRIFLSHYFLHVSADLKATALQASRGFALYNAANLKSINFHRQIEEKSLAQLKRQMKRIRAKQEKYRQSQASRGQLQSKDPQDPSQEPGPDSPGGSSPPRRQWWRPWLDHATVIHSGDYFLFESDSEEEEEALPEDPRPAAQSAFQMAYQAWVTNAQTVLRQRRERARQERAEQLASGGDLNPDVEPVDVPEDEMAGRSHMMQRVLSTMQFLWVLGQATVDGLTRWLRAFTKHHRTMSDVLCAERYLLTQELLRVGEVRRGVLDQLYVGEDEATLSGPVETRDGPSTASSGLGAEEPLSSMTDDTSSPLSTGYNTRSGSEEIVTDAGDLQAGTSLHGSQELLANARTRMRTASELLLDRRLHIPELEEAERFEAQQGRTLRLLRAGYQCVAAHSELLCYFIIILNHMVTASAASLVLPVLVFLWAMLTIPRPSKRFWMTAIVFTEVMVVTKYLFQFGFFPWNSYVVLRRYENKPYFPPRILGLEKTDSYIKYDLVQLMALFFHRSQLLCYGLWDHEEDRYPKDHCRSSVKDREAKEEPEAKLESQSETGTGHPKEPVLAGTPRDHIQGKGSIRSKDVIQDPPEDLKPRHTRHISIRFRRRKETPGPKGTAVMETEHEEGEGKETTERKRPRHTQEKSKFRERMKAAGRRLQSFCVSLAQSFYQPLQRFFHDILHTKYRAATDVYALMFLADIVDIIIIIFGFWAFGKHSAATDIASSLSDDQVPQAFLFMLLVQFGTMVIDRALYLRKTVLGKLAFQVVLVVAIHIWMFFILPAVTERMFSQNAVAQLWYFVKCIYFALSAYQIRCGYPTRILGNFLTKKYNHLNLFLFQGFRLVPFLVELRAVMDWVWTDTTLSLSNWMCVEDIYANIFIIKCSRETEKKYPQPKGQKKKKIVKYGMGGLIILFLIAIIWFPLLFMSLIRSVVGVVNQPIDVTVTLKLGGYEPLFTMSAQQPSIVPFTPQAYEELSQQFDPYPLAMQFISQYSPEDIVTAQIEGSSGALWRISPPSRAQMKQELYNGTADITLRFTWNFQRDLAKGGTVEYTNEKHTLELAPNSTARRQLAQLLEGRPDQSVVIPHLFPKYIRAPNGPEANPVKQLQPDEEEDYLGVRIQLRREQVGTGASGEQAGTKASDFLEWWVIELQDCKADCNLLPMVIFSDKVSPPSLGFLAGYGIVGLYVSIVLVVGKFVRGFFSEISHSIMFEELPCVDRILKLCQDIFLVRETRELELEEELYAKLIFLYRSPETMIKWTRERE
chain 2: MENAHTKTVEEVLGHFGVNESTGLSLEQVKKLKERWGSNELPAEEGKTLLELVIEQFEDLLVRILLLAACISFVLAWFEEGEETITAFVEPFVILLILVANAIVGVWQERNAENAIEALKEYEPEMGKVYRQDRKSVQRIKAKDIVPGDIVEIAVGDKVPADIRLTSIKSTTLRVDQSILTGESVSVIKHTDPVPDPRAVNQDKKNMLFSGTNIAAGKAMGVVVATGVNTEIGKIRDEMVATEQERTPLQQKLDEFGEQLSKVISLICIAVWIINIGHFNDPVHGGSWIRGAIYYFKIAVALAVAAIPEGLPAVITTCLALGTRRMAKKNAIVRSLPSVETLGCTSVICSDKTGTLTTNQMSVCRMFILDRVEGDTCSLNEFTITGSTYAPIGEVHKDDKPVNCHQYDGLVELATICALCNDSALDYNEAKGVYEKVGEATETALTCLVEKMNVFDTELKGLSKIERANACNSVIKQLMKKEFTLEFSRDRKSMSVYCTPNKPSRTSMSKMFVKGAPEGVIDRCTHIRVGSTKVPMTSGVKQKIMSVIREWGSGSDTLRCLALATHDNPLRREEMHLEDSANFIKYETNLTFVGCVGMLDPPRIEVASSVKLCRQAGIRVIMITGDNKGTAVAICRRIGIFGQDEDVTSKAFTGREFDELNPSAQRDACLNARCFARVEPSHKSKIVEFLQSFDEITAMTGDGVNDAPALKKAEIGIAMGSGTAVAKTASEMVLADDNFSTIVAAVEEGRAIYNNMKQFIRYLISSNVGEVVCIFLTAALGFPEALIPVQLLWVNLVTDGLPATALGFNPPDLDIMNKPPRNPKEPLISGWLFFRYLAIGCYVGAATVGAAAWWFIAADGGPRVSFYQLSHFLQCKEDNPDFEGVDCAIFESPYPMTMALSVLVTIEMCNALNSLSENQSLLRMPPWENIWLVGSICLSMSLHFLILYVEPLPLIFQITPLNVTQWLMVLKISLPVILMDETLKFVARNYLEPGKECVQPATKSCSFSACTDGISWPFVLLIMPLVIWVYSTDTNFSDMFWS

This test covers variants of B1. As to the kind of experiment: GST pull-down, western blot quantification; co-expressed Flag-SERCA2; repeated 3 times; mean ± s.e.m.; parent: 1; read off a plot. In general terms: Immunoblotting shows a protein as a band on a membrane.
On to chain 1 E2172A, chain 1 K2173A, chain 1 K2174A, chain 1 Y2175A, chain 1 P2176A, chain 1 Q2177A, chain 1 P2178A, chain 1 K2179A, chain 1 G2180A, chain 1 Q2181A, for which the ratio to parent was ~0.4.
Take chain 1 K2182A, chain 1 K2183A, chain 1 K2184A, chain 1 K2185A: the ratio to parent is ~0.3.
